Legend:
[1] = target: GFP-MAP2C ΔSP (human MAP2C lacking the serine/proline-rich region), expressed in HEK293 cells (human) (UniProt P11137); experiment: co-IP; anti-His antibody on Dynabeads Protein G; 500 μg lysate of HEK293 cells co-expressing DHC1 and GFP-His-MAP2C; 50 mM Hepes pH 7.4, 100 mM NaCl, 2 mM EDTA, 0.5% Triton X-100; 1 h at 4 °C; blot with anti-DHC1 and anti-GFP, bands quantified with ImageJ
[2] = target: T1, microtubules (MTs), endogenous in cultured rat hippocampal neurons (rat (endogenous in hippocampal neurons), UniProt Q4QRB4 1-450, Representative alpha/beta heterodimer of a microtubule polymer (many copies). Endogenous neuronal microtubules are a mixture of tubulin isotypes. The alpha member is not told in the paper (Tuba1a assu)); experiment: FRAP fitted with a reaction-diffusion simulation; FRAP of GFP-MAP2C in living neurons; KD from the best fit of a VCell simulation; 75 μM MT binding sites, 25 μM GFP-MAP2C and 5 μM endogenous MAP2 assumed; kon set, koff adjusted; conditions: partners not purified
[3] = target: T1, microtubules (MTs), endogenous in …; experiment: FRAP fitted with a reaction-diffusion simulation; as a3 but with 40 μM MT binding sites assumed; conditions: partners not purified

co-immunoprecipitated DHC1 normalized to immunoprecipitated GFP-MAP2C, relative to WT (relative to the WT condition (set to 1)) [1]	Kd [2]	Kd [3]	Molecule
0.45	–	–	cytoplasmic dynein heavy chain 1 (DHC1), expressed from a plasmid in HEK293 cells, Q14204 1-4646
–	4500 nM	1000 nM	GFP-MAP2C (human MAP2C tagged with AcGFP and 6xHis, wild type), expressed in cultured rat hippocampal neurons (natural protein, UniProt P11137-2 1-471, looked up, MAP2C, low molecular weight isoform of human microtubule-associated protein 2; the 471-amino-acid isoform; Same construct as m1, other host; also called wild-type GFP-MAP2C; WT; source: cultured rat hippocampal neurons, transfected, in living cells; not shown: AcGFP, N-terminal, kept) MADERKDEAKAPHWTSAPLTEASAHSHPPEIKDQGGAGEGLVRSANGFPYREDEEGAFGEHGSQGTYSNTKENGINGELTSADRETAEEVSARIVQVVTAEAVAVLKGEQEKEAQHKDQTAALPLAAEETANLPPSPPPSPASEQTVTVEEAAGGESALAPSVFKQAKDKVSDGVTKSPEKRSSLPRPSSILPPRRGVSGDRDENSFSLNSSISSSARRTTRSEPIRRAGKSGTSTPTTPGSTAITPGTPPSYSSRTPGTPGTPSYPRTPHTPGTPKSAILVPSEKKVAIIRTPPKSPATPKQLRLINQPLPDLKNVKSKIGSTDNIKYQPKGGQVQIVTKKIDLSHVTSKCGSLKNIRHRPGGGRVKIESVKLDFKEKAQAKVGSLDNAHHVPGGGNVKIDSQKLNFREHAKARVDHGAEIITQSPGRSSVASPRRLSNVSSSGSINLLESPQLATLAEDVTAALAKQGL
